Data taken from article PMC7772510 (Molecules and Cells, 2020).

Molecular target: T1, His6-αX I-domain (UniProt P20702 146-332)
T1 sequence (looked up): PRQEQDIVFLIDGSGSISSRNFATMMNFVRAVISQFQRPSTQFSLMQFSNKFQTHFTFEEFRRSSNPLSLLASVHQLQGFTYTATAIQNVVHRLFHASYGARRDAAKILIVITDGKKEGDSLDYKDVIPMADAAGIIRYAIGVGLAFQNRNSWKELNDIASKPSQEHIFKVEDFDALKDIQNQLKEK
Test: ELISA

- binding result: binds
B1: GST-αNTN (domain or fragment, human, UniProt P01024 750-775, looked up)
chain: NLDEDIIAEENIVSRSEFPESWLWNV
